B1: HDV Ribozyme (parent)
chain: GGCCGGCAUGGUCCCAGCCUCCUCGCUGGCGCCGGCUGGGCAACAUUCCGAGGGGACCGUCCCCUCGGUAAUGGCGAAUGGGACCCA

Variants of: B1
Assay: self-cleavage, relative activity (ratio to wild type); higher = more cleavage; co-transcriptional

Variant	self-cleavage
C32A A70G	0.285
C32A A70U	0.0852
C32G G80A	0.0764
C32G C64A	0.0755
G31C U69C	0.534
G31C U69G	0.394
C32A G68U	0.0906
C32A G68C	0.113
C32U C41A	0.591
C32U C44U	0.564
C32A U47C	0.0462
C32G A83U	0.166
C32A C84U	0.0536
G31U A78C	0.0297
G31U A78G	0.0811
G31U A78U	0.0744
G31U C48U	0.619
G31U C48G	0.543
C32U A77U	0.496
G31U G55C	0.314
C32A A51U	0.256
G31U G35C	0.141
G31U C66U	0.437
G31U C66A	0.45

Variant	self-cleavage
G31C G81A	0.0791
C32G G82C	0.0652
C32A G52C	0.0831
C32A G52A	0.302
C32G C75U	0.0468
C32G C75G	0
C32A G59C	0.271
C32A G59A	0.373
C32G G40U	0.0791
G31U A51C	0.462
C32G A42U	0.0594
C32G A42G	0.0426
G31U A56U	0.489
G31C G39C	0.0475
G31C G39U	0.277
C32G A70C	0.38
C32G U47G	0.0594
C32A C64U	0.175
C32G A71U	0.115
G31C U37G	0.214
C32G G53A	0.205
C32G G68C	0
G31U G50U	0.415
C32G G34C	0.0475

Variant	self-cleavage
C32G A45U	0.142
C32G A45G	0.0811
C32A C49G	0.222
C32A C49U	0.0997
G31C G40A	0.406
G31U G52U	0.492
C32A C61U	0.201
C32A C61G	0.248
C32A C61A	0.162
G31U C86U	0.453
C32G U60C	0.0723
G31U G38A	0.109
G31U G38C	0.148
C32G U37G	0.0554
C32G G50U	0.0268
C32A G39A	0.0563
G31U A70C	0.161
C32A C44U	0.0875
C32A C44A	0.364
C32A C44G	0.107
G31C G38U	0.123
C32A C48G	0.0462
G31U C49G	0.231
G31U C49U	0.302

Variant	self-cleavage
C32G C36G	0.0449
C32U A56U	0.76
C32A U79A	0.121
C32A A87U	0.183
C32A A87G	0.165
G31U G74U	0.136
G31C U47A	0.467
C32G G52A	0.254
C32G G52U	0.198
C32G C85U	0.0692
C32G C85A	0.0378
C32G C85G	0.111
C32A C33U	0.0779
G31U C41A	0.136
C32A C66U	0.315
C32G C41G	0.0665
G31C G74A	0.0573
G31U C61G	0.332
G31U A42G	0.0923
G31U G76C	0.479
C32G G59C	0.0923
C32A G74C	0.108
G31C U60A	0.434
G31C U60C	0.525

Variant	self-cleavage
G31U U47C	0.383
C32G G73U	0.0692
C32G G73A	0.0615
G31U G39C	0.166
G31U G39A	0.0361
C32A G50A	0.136
C32A G50C	0.262
C32G C84U	0.0354
C32G C84A	0.0386
C32G U65C	0.135
G31U C62A	0.602
C32A C62G	0.0489
C32A C62U	0.341
G31U C57A	0.464
C32U A78G	0.525
C32A G40A	0.242
C32G C86U	0.203
C32A A42G	0.0519
C32A A42C	0.162
G31U G67A	0.369
G31C U72C	0.262
G31C U72A	0.166
C32G C48G	0.0437
C32G C48A	0.0378

Variant	self-cleavage
G31U C85G	0.481
G31C U79C	0.282
C32U A87C	0.795
C32A G67U	0.232
C32A	0.21
C32G	0.103
C32U	0.881
C32G U46G	0
C32G C66U	0.162
G31U G34C	0.117
C32U A42G	0.244
C32U A42U	0.591
G31U G80C	0.0449
G31U A87U	0.521
C32A C41U	0.143
C32A A77U	0.108
C32A A77G	0.0426
G31C U46G	0.266
G31C U46A	0.256
G31U G40U	0.166
G31C G55C	0.327
C32G G38A	0.0831
C32U A51U	0.884
C32G C63G	0.0831

Variant	self-cleavage
C32G C63U	0.112
G31C G76A	0.453
G31C G76C	0.609
C32U C36A	0.17
C32U C36U	0.493
C32G U72A	0.0489
C32G U72C	0.104
C32A G82A	0.0361
G31C G73C	0.155
C32G G76A	0.271
C32G A43C	0.0536
C32G A43U	0
C32G C57U	0.0702
C32A A45C	0.0875
C32A A71U	0.222
G31U C75A	0.0665
C32A C86U	0.147
C32A G35U	0.157
C32A A78U	0.0923
C32G C49U	0.0811
C32A A83G	0.152
G31U G82C	0.136
G31C G82U	0.128
